Biological target: Carbonic Anhydrase IX (CA-IX) (Homo sapiens, UniProt Q16790 Q16790:38-414)
Test: RT-qPCR cell binding, 100 nM, 15 min, 37 C, acid condition

Binder	binding signal
UCGAAUGAACCAAGGUUCCUCGGC (ssRNA, 2'-F pyrimidines) [SAM-2.T1]	2.4 fold over COS7-WT
UUCGUGCCGCUGAGUGCGUACGGGC (ssRNA, 2'-F pyrimidines) [SAM-1.T1]	1.3 fold over COS7-WT

From patent US20220348923, “CA-IX APTAMERS AND DIAGNOSTIC AND THERAPEUTIC USES THEREOF” (BRACCO IMAGING S.P.A., published 2022)
